From patent publication US20240261333A1, “NOVEL TARGETS FOR ENHANCING ANTI-TUMOR IMMUNITY” (THE BROAD INSTITUTE, INC., priority 2021, published 2024)

Columns and labels:
KCTD5 (human) = KCTD5 (human) (UniProt Q9NXV2); test: co-IP with anti-FLAG, N-FLAG B3GNT2, mass spectrometry
[1] = target: P0AA25.2 [thioredoxin: P0AA25]; test: as above
CPT1A (human) = CPT1A (human) (UniProt P50416); test: as above
GSN (human) = GSN (human) (UniProt P06396); test: as above
EMILIN1 (human) = EMILIN1 (human) (UniProt Q9Y6C2); test: as above
SYNPO (human) = SYNPO (human) (UniProt Q8N3V7); test: as above
SERPINB3 (human) = SERPINB3 (human) (UniProt P29508); test: as above
LUC7L3 (human) = LUC7L3 (human) (UniProt O95232); test: as above
RPL28 (human) = RPL28 (human) (UniProt P46779); test: as above
RPL7 (human) = RPL7 (human) (UniProt P18124); test: as above
HBB (human) = HBB (human) (UniProt P68871); test: as above
MMS19 (human) = MMS19 (human) (UniProt Q96T76); test: as above
PPFIBP1 (human) = PPFIBP1 (human) (UniProt Q86W92); test: as above
RACK1 (human) = RACK1 (human) (UniProt P63244); test: as above
COPA (human) = COPA (human) (UniProt P53621); test: as above
PSMB5 (human) = PSMB5 (human) (UniProt P28074); test: as above
PSMA3 (human) = PSMA3 (human) (UniProt P25788); test: as above
RPL8 (human) = RPL8 (human) (UniProt P62917); test: as above
DDX1 (human) = DDX1 (human) (UniProt Q92499); test: as above
HNRNPH1 (human) = HNRNPH1 (human) (UniProt P31943); test: as above
IL13RA2 (human) = IL13RA2 (human) (UniProt Q14627); test: as above
MAP4 (human) = MAP4 (human) (UniProt P27816); test: as above
RHOT2 (human) = RHOT2 (human) (UniProt Q8IXI1); test: as above
RPS27A (human) = RPS27A (human) (UniProt P62979); test: as above
XPO1 (human) = XPO1 (human) (UniProt O14980); test: as above
RPL17 (human) = RPL17 (human) (UniProt P18621); test: as above
TELO2 (human) = TELO2 (human) (UniProt Q9Y4R8); test: as above
MMP14 (human) = MMP14 (human) (UniProt P50281); test: as above
XPOT (human) = XPOT (human) (UniProt O43592); test: as above
LCN1 (human) = LCN1 (human) (UniProt P31025); test: as above
RPS5 (human) = RPS5 (human) (UniProt P46782); test: co-IP/MS, IgG control IP of N-FLAG B3GNT2 cell lysate
RPS9 (human) = RPS9 (human) (UniProt P46781); test: as above
PDIA6 (human) = PDIA6 (human) (UniProt Q15084); test: as above
RPL14 (human) = RPL14 (human) (UniProt P50914); test: as above
RPL13A (human) = RPL13A (human) (UniProt P40429); test: as above
LSM12 (human) = LSM12 (human) (UniProt Q3MHD2); test: co-IP, anti-FLAG, lysate of cells with C-FLAG B3GNT2; mass spectrometry
DNAJC3 (human) = DNAJC3 (human) (UniProt Q13217); test: as above
EIF5B (human) = EIF5B (human) (UniProt O60841); test: as above
PUM1 (human) = PUM1 (human) (UniProt Q14671); test: as above
HADHB (human) = HADHB (human) (UniProt P55084); test: as above

Chain of TELO2 (human) (Q9Y4R8 whole entry): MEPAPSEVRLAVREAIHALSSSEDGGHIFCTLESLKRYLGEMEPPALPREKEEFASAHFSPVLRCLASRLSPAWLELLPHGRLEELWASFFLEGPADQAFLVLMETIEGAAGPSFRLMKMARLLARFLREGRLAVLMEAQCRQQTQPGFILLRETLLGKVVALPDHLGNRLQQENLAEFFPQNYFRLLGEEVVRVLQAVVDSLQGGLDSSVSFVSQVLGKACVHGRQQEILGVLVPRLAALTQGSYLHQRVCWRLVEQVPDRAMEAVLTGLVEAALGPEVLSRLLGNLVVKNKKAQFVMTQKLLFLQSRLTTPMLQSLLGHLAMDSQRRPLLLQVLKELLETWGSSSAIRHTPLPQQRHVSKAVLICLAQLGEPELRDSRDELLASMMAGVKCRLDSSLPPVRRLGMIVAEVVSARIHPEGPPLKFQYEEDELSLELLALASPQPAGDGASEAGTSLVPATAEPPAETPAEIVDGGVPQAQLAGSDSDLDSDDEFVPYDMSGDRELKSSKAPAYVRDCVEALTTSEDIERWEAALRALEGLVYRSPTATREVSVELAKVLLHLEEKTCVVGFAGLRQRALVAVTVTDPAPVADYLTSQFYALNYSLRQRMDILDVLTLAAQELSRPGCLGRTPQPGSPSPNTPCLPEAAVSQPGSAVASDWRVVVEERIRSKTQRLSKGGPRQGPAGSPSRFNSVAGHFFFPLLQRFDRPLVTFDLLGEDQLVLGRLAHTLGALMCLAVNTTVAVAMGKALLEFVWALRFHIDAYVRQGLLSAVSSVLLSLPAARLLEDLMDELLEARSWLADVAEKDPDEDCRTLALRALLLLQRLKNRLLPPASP
Chain of COPA (human) (P53621 whole entry): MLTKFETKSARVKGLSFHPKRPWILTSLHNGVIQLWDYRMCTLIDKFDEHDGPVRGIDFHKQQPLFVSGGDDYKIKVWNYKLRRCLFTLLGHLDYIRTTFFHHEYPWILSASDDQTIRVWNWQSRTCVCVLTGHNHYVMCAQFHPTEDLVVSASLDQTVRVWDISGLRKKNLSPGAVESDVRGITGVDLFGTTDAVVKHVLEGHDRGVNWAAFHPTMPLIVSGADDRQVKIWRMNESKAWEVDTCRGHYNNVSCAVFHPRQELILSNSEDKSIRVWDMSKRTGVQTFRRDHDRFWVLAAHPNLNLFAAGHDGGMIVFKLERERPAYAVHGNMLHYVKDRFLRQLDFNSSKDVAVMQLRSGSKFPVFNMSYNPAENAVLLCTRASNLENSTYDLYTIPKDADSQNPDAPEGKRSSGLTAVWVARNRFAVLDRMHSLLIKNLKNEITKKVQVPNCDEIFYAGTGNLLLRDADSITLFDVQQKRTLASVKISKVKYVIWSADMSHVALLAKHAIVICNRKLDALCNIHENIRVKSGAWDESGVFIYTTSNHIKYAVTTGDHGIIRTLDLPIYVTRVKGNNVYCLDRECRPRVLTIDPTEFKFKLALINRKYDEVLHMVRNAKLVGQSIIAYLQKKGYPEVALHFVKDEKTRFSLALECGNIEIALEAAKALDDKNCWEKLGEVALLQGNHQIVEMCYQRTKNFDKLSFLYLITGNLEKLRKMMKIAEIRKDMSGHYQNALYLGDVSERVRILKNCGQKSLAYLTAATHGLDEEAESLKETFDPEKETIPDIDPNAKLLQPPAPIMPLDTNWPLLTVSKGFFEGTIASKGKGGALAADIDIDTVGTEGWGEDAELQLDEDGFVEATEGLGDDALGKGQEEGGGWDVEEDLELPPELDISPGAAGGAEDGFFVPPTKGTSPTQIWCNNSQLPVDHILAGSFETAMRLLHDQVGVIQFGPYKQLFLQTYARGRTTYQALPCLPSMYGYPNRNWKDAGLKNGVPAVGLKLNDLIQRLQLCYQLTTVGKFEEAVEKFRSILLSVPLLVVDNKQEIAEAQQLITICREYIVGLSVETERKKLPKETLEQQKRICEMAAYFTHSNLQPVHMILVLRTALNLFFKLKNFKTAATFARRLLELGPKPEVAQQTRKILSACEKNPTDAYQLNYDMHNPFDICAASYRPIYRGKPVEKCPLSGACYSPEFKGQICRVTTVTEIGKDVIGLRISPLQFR
Chain of XPOT (human) (O43592 whole entry): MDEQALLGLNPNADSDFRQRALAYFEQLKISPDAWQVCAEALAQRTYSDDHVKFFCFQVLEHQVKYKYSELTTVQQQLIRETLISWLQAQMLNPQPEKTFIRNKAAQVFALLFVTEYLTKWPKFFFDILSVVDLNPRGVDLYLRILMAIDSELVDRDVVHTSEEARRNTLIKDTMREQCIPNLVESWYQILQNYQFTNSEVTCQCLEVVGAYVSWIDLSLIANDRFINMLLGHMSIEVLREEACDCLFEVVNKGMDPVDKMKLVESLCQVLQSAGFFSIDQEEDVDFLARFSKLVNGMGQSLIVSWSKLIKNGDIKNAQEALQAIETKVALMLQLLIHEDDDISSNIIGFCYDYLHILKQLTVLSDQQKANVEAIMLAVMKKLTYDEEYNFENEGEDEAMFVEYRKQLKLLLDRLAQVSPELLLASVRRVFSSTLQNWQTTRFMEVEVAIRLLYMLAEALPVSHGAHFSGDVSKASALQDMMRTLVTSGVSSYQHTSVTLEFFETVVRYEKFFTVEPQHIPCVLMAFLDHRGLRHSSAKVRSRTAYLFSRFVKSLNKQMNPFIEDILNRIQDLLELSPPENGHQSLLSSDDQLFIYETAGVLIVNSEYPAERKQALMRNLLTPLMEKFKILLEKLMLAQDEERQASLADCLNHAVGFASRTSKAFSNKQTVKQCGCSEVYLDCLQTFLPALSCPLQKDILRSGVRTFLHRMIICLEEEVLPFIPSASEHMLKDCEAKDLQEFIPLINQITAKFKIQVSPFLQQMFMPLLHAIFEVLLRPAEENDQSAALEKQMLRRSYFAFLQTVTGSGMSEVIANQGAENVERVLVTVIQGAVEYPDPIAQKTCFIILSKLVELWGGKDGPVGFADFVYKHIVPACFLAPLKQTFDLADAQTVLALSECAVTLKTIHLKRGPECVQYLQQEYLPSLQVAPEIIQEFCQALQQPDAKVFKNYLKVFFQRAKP
Chain of XPO1 (human) (O14980 whole entry): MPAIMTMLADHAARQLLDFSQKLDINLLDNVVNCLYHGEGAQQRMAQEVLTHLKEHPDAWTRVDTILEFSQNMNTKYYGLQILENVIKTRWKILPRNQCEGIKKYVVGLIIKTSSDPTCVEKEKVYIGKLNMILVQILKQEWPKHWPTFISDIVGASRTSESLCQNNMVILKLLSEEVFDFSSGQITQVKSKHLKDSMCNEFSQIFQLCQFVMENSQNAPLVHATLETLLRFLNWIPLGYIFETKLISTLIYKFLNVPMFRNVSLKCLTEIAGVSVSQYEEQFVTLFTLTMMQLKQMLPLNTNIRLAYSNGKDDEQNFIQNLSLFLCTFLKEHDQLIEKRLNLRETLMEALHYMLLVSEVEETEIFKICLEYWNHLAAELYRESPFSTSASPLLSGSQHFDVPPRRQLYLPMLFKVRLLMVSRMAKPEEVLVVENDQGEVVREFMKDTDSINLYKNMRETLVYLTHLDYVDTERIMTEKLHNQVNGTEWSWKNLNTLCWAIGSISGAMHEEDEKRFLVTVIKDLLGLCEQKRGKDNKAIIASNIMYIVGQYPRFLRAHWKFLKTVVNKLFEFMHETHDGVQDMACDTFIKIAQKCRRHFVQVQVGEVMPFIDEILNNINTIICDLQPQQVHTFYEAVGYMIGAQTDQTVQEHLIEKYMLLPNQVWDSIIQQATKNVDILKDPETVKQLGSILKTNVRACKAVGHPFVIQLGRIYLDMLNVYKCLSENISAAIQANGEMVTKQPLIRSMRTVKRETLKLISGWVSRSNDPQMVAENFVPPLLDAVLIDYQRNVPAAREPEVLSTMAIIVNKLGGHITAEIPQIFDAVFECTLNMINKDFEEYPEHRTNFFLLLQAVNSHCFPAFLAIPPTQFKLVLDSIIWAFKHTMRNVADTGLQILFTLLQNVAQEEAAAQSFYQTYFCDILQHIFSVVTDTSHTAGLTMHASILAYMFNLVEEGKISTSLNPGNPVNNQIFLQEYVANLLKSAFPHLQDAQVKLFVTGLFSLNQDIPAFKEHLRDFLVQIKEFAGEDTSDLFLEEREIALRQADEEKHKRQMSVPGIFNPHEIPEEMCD
Chain of RHOT2 (human) (Q8IXI1 whole entry): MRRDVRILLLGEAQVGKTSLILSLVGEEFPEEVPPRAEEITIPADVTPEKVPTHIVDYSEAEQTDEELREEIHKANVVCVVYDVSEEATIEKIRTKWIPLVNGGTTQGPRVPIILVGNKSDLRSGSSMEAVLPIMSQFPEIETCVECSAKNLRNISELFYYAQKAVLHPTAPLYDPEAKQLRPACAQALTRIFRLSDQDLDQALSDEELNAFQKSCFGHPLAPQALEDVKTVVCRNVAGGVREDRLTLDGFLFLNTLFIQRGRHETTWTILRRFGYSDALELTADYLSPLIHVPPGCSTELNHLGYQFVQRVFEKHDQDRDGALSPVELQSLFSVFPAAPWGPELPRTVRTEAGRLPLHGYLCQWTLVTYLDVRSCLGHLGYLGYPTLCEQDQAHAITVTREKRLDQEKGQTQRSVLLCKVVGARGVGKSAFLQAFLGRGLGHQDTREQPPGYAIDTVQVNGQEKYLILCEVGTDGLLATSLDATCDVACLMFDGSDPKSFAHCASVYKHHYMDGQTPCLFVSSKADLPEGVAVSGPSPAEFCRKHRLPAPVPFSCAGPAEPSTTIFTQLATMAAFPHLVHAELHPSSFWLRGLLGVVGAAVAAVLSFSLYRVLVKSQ
Chain of HBB (human) (P68871 2-147 limits assumed): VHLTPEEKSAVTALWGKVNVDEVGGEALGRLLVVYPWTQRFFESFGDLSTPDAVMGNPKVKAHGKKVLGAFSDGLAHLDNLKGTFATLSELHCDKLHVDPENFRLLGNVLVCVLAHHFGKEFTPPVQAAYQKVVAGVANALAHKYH
Chain of LSM12 (human) (Q3MHD2 2-195 limits assumed): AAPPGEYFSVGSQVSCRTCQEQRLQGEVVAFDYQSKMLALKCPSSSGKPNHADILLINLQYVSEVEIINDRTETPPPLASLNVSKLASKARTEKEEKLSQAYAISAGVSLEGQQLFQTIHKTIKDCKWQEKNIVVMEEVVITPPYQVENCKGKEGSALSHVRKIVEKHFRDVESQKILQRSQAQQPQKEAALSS

“N-terminal FLAG tagged B3GNT2 (from UniProt Q9NY97 1-397) (enzyme)” showed a co-IP mass spectrometry count (KCTD5 (human)) of 2, a co-IP/MS count, N-term FLAG [1] of 7 and a co-IP/MS count, N-term FLAG (CPT1A (human)) of 2. For the same substance, the co-IP mass spectrometry count (GSN (human)) was 2, the co-IP mass spectrometry count (EMILIN1 (human)) was 2 and the co-IP mass spectrometry count (SYNPO (human)) was 4. The co-IP mass spectrometry count (SERPINB3 (human)) was 10, the co-IP/MS count, N-term FLAG (LUC7L3 (human)) was 4 and the co-IP mass spectrometry count (RPL28 (human)) was 8. The co-IP mass spectrometry count (RPL7 (human)) was 10, the co-IP/MS count, N-term FLAG (HBB (human)) was 4 and the co-IP/MS count, N-term FLAG (MMS19 (human)) was 4. For the same substance, the co-IP mass spectrometry count (PPFIBP1 (human)) was 2, the co-IP mass spectrometry count (RACK1 (human)) was 2 and the co-IP/MS count, N-term FLAG (COPA (human)) was 2. For the same substance, the co-IP/MS count, N-term FLAG (PSMB5 (human)) was 4, the co-IP/MS count, N-term FLAG (PSMA3 (human)) was 4 and the co-IP mass spectrometry count (RPL8 (human)) was 10. For the same substance, the co-IP mass spectrometry count (DDX1 (human)) was 7, the co-IP/MS count, N-term FLAG (HNRNPH1 (human)) was 11 and the co-IP mass spectrometry count (IL13RA2 (human)) was 3. For the same substance, the co-IP mass spectrometry count (MAP4 (human)) was 0, the co-IP mass spectrometry count (RHOT2 (human)) was 3 and the co-IP mass spectrometry count (RPS27A (human)) was 8. The co-IP/MS count, N-term FLAG (XPO1 (human)) was 2, the co-IP/MS count, N-term FLAG (RPL17 (human)) was 3 and the co-IP mass spectrometry count (TELO2 (human)) was 2. For the same substance, the co-IP/MS count, N-term FLAG (MMP14 (human)) was 2, the co-IP/MS count, N-term FLAG (XPOT (human)) was 2 and the co-IP mass spectrometry count (LCN1 (human)) was 11.
“IgG control (Millipore Sigma 12-371) (antibody)” showed a co-IP mass spectrometry count (RPS5 (human)) of 3, a co-IP mass spectrometry count (RPS9 (human)) of 3 and a co-IP mass spectrometry count (PDIA6 (human)) of 0. For the same substance, the co-IP mass spectrometry count (RPL14 (human)) was 7 and the co-IP mass spectrometry count (RPL13A (human)) was 0.
In the case of “C-terminal FLAG tagged B3GNT2 (from UniProt Q9NY97 1-397) (enzyme)”, the co-IP mass spectrometry count (LSM12 (human)) is reported as 4, the co-IP mass spectrometry count (DNAJC3 (human)) is reported as 3 and the co-IP mass spectrometry count (EIF5B (human)) is reported as 3. It also gave a co-IP mass spectrometry count (PUM1 (human)) of 3 and a co-IP mass spectrometry count (HADHB (human)) of 3.
